Assay results from patent US20250135039A1, “INHIBITOR-RESISTANT MGMT MODIFICATIONS AND MODIFICATION OF MGMT-ENCODING NUCLEIC ACIDS” (Ensoma, Inc., priority 2022, published 2025).

Test system: U251 human glioblastoma cell line
Assay: in vitro FM-HCR assay of MGMT activity (mPlum O^6MeG reporter plasmid)
Type: cell-based
Conditions: for Reporter expression (%) mean, O^6BG: 100 μM O^6BG; for Reporter expression (%) mean, O^6BG / Reporter expression (%) mean, DMSO: U251 cells, flow cytometry 24 h after transfection, damaged/undamaged reporter, inversely related to MGMT activity; for Reporter expression (%) mean, DMSO: 0.1% DMSO; for MGMT activity (a.u.) DMSO / MGMT activity (% of WT) DMSO: DMSO condition; for MGMT activity (a.u.) DMSO / MGMT activity (a.u.) O^6BG: determined from percent reporter expression; for MGMT activity (% of WT) DMSO / MGMT activity (% of WT) O^6BG: relative to wild-type MGMT in same condition; for Relative MGMT activity (%): MGMT activity (a.u.) in O^6BG divided by DMSO x 100, higher values indicate resistance; for MGMT activity (a.u.) O^6BG / MGMT activity (% of WT) O^6BG: O^6BG condition; for Ratio percent reporter expression (O^6BG/DMSO): lower values indicate resistance to O^6BG; for O^6BG resistance relative to WT (%): percentage difference in relative MGMT activity between variant and wild-type MGMT
Source text: The present Example includes, in part, an in vitro fluorescence multiplex host cell reactivation (FM-HCR) assay in which a reporter plasmid with O^6MeG-containing oligonucleotides is used. The oligonucleotides induce transcription errors that lead to expression of fluorescent mPlum protein. Functional MGMT will repair the O^6MeG sites and reduce mPlum expression. This represents a rapid and validated assay system to assess intracellular activity of MGMT. Further description of certain such assays is found in Nagel (2014 PNAS USA 111 (18): E1823-32, which is incorporated herein by reference.
The present Example uses an in vitro FM-HCR assay in which a reporter plasmid with 0° MeG-containing oligonucleotides is used to assay MGMT activity in cells. The O^6MeG-containing oligonucleotides induce transcription errors that lead to expression of fluorescent mPlum protein. Functional MGMT will repair the O'MeG sites and reduce mPlum expression. This represents a rapid and validated assay system to assess intracellular activity of MGMT. Further description of certain such assays is found in Nagel et al., 2014 PNAS USA 111 (18): E1823-32 and Piett et al., 2021 Nat. Protoc. 16 (9): 4265-4298, each of which is incorporated herein by reference.
The in vitro FM-HCR assay was performed using the U251 human glioblastoma cell line. The cells were cultured in DMEM with 10% FBS and passaged every three days.
To express MGMT variants in the cells, plasmids encoding each MGMT variant were designed and generated by either de novo synthesis or cloning into the pTwist EF1 Alpha Puro vector at the HindII-BamHI multiple cloning site. The pTwist EF1 Alpha Puro plasmid vector drives expression of the MGMT transcript from a human EF1-alpha promoter including intron 1 and an SV40 polyadenylation signal. Plasmids encoding the MGMT variants were purified using standard molecular biology techniques from E. coli with low endotoxins. Plasmids encoding wild-type MGMT or O^6BG-resistant MGMT^P140K were also designed and generated for use as controls.
To perform the in vitro FM-HCR assay, U251 cells were seeded in 12-well plates at a density of 50,000 cells per well in 1 mL culture media. The following day, the media was changed to 1 mL of culture media containing O^6BG (100 μM O^6BG and 0.1% DMSO final) or 0.1% DMSO; and the cells were transfected with 1,000 ng of a plasmid cocktail using Lipofectamine 3000 (ThermoFisher Scientific) at 1.8 μL Lipofectamine 3000 Reagent and 2 μL P3000 reagent in Opti-MEM medium (ThermoFisher Scientific). […] For the “undamaged” condition, the plasmid cocktail replaced the mPlum O^6MeG reporter plasmid with 100 ng of a plasmid expressing mPlum. The plasmid encoding BFP was used as an internal transfection control. For transfections where no MGMT encoding plasmid is used (no pMGMT), 250 ng of additional carrier plasmid was used to maintain a total DNA amount of 1,000 ng in each transfection. Four hours after transfection, the transfection medium was changed.
All transfected cells were analyzed by flow cytometry at 24-hours after transfection. Data was analyzed as previously described in Nagel et al., 2014 PNAS USA 111 (18): E1823-32 and Piett et al., 2021 Nat. Protoc. 16 (9): 4265-4298. For each condition, normalized reporter expression was determined by taking the product of the mPlum-positive cell count and the mean mPlum fluorescence intensity in mPlum-positive cells and dividing it by the product of the BFP-positive cell count and the mean BFP fluorescence intensity in BFP-positive cells. Next, for each MGMT variant, the percent reporter expression was determined by taking the normalized reporter expression in the “damaged” condition and dividing it by the normalized reporter expression in the “undamaged” condition, and then multiplying by 100 to obtain a percent value. […]

B1: P140R: MGMT polypeptide with mutation P140R (protein)
chain: MDKDCEMKRTTLDSPLGKLELSGCEQGLHEIKLLGKGTSAADAVEVPAPAAVLGGPEPLMQCTAWLNAYFHQPEAIEEFPVPALHHPVFQQESFTRQVLWKLLKVVKFGEVISYQQLAALAGNPKAARAVGGAMRGNPVRILIPCHRVVCSSGAVGNYSGGLAVKEWLLAHEGHRLGKPGLGGSSGLAGAWLKGAGATSGSPPAGRN
Reporter expression (%) mean, O^6BG: 38.3%
Reporter expression (%) mean, DMSO: 25.3%
MGMT activity (a.u.) DMSO: 3.95 a.u.
MGMT activity (% of WT) DMSO: 73.0 % of WT
Relative MGMT activity (%): 66.1%
MGMT activity (a.u.) O^6BG: 2.61 a.u.
MGMT activity (% of WT) O^6BG: 182.6 % of WT
Ratio percent reporter expression (O^6BG/DMSO): 1.51
O^6BG resistance relative to WT (%): 150.1%

B2: G156A: MGMT polypeptide with mutation G156A (protein)
chain: MDKDCEMKRTTLDSPLGKLELSGCEQGLHEIKLLGKGTSAADAVEVPAPAAVLGGPEPLMQCTAWLNAYFHQPEAIEEFPVPALHHPVFQQESFTRQVLWKLLKVVKFGEVISYQQLAALAGNPKAARAVGGAMRGNPVPILIPCHRVVCSSGAVANYSGGLAVKEWLLAHEGHRLGKPGLGGSSGLAGAWLKGAGATSGSPPAGRN
Reporter expression (%) mean, O^6BG: 79.0%
Reporter expression (%) mean, DMSO: 32.3%
MGMT activity (a.u.) DMSO: 3.10 a.u.
MGMT activity (% of WT) DMSO: 57.4 % of WT
Relative MGMT activity (%): 40.8%
MGMT activity (a.u.) O^6BG: 1.27 a.u.
MGMT activity (% of WT) O^6BG: 88.6 % of WT
Ratio percent reporter expression (O^6BG/DMSO): 2.45
O^6BG resistance relative to WT (%): 54.5%

B3: G156I: MGMT polypeptide with mutation G156I (protein)
chain: MDKDCEMKRTTLDSPLGKLELSGCEQGLHEIKLLGKGTSAADAVEVPAPAAVLGGPEPLMQCTAWLNAYFHQPEAIEEFPVPALHHPVFQQESFTRQVLWKLLKVVKFGEVISYQQLAALAGNPKAARAVGGAMRGNPVPILIPCHRVVCSSGAVINYSGGLAVKEWLLAHEGHRLGKPGLGGSSGLAGAWLKGAGATSGSPPAGRN
Reporter expression (%) mean, O^6BG: 54.0%
Reporter expression (%) mean, DMSO: 42.0%
MGMT activity (a.u.) DMSO: 2.38 a.u.
MGMT activity (% of WT) DMSO: 44.0 % of WT
Relative MGMT activity (%): 77.8%
MGMT activity (a.u.) O^6BG: 1.85 a.u.
MGMT activity (% of WT) O^6BG: 129.6 % of WT
Ratio percent reporter expression (O^6BG/DMSO): 1.29
O^6BG resistance relative to WT (%): 194.3%

B4: G156P: MGMT polypeptide with mutation G156P (protein)
chain: MDKDCEMKRTTLDSPLGKLELSGCEQGLHEIKLLGKGTSAADAVEVPAPAAVLGGPEPLMQCTAWLNAYFHQPEAIEEFPVPALHHPVFQQESFTRQVLWKLLKVVKFGEVISYQQLAALAGNPKAARAVGGAMRGNPVPILIPCHRVVCSSGAVPNYSGGLAVKEWLLAHEGHRLGKPGLGGSSGLAGAWLKGAGATSGSPPAGRN
Reporter expression (%) mean, O^6BG: 47.3%
Reporter expression (%) mean, DMSO: 41.0%
MGMT activity (a.u.) DMSO: 2.44 a.u.
MGMT activity (% of WT) DMSO: 45.1 % of WT
Relative MGMT activity (%): 86.6%
MGMT activity (a.u.) O^6BG: 2.11 a.u.
MGMT activity (% of WT) O^6BG: 147.9 % of WT
Ratio percent reporter expression (O^6BG/DMSO): 1.15
O^6BG resistance relative to WT (%): 227.8%
